Measurements as given in patent publication US20260266848A1, “COMPOSITIONS AND METHODS FOR DIAGNOSING AND TREATING DYSTONIA” (Duke University, priority 2023, published 2026).

B1: Impa1 (protein, UniProt O55023 1-277, looked up)
Inositol monophosphatase 1: MADPWQECMDYAVILARQAGEMIREALKNEMDVMIKSSPADLVTVTDQKVEKMLMSSIKEKYPCHSFIGEESVAAGEKTVFTESPTWFIDPIDGTTNFVHRFPFVAVSIGFLVNKEMEFGIVYSCVEDKMYTGRKGKGAFCNGQKLQVSQQEDITKSLLVTELGSSRKPETLRIVLSNMEKLCSIPIHGIRSVGTAAVNMCLVATGGADAYYEMGIHCWDMAGAGIIVTEAGGVLMDVTGGPFDLMSRRIIAANSITLAKRIAKEIEIIPLQRDDES
B2: C1qtnf3 (protein, UniProt Q9BXJ4 23-246, looked up)
Complement C1q tumor necrosis …: QDEYMESPQTGGLPPDCSKCCHGDYSFRGYQGPPGPPGPPGIPGNHGNNGNNGATGHEGAKGEKGDKGDLGPRGERGQHGPKGEKGYPGIPPELQIAFMASLATHFSNQNSGIIFSSVETNIGNFFDVMTGRFGAPVSGVYFFTFSMMKHEDVEEVYVYLMHNGNTVFSMYSYEMKGKSDTSSNHAVLKLAKGDEVWLRMGNGALHGDHQRFSTFAGFLLFETK
B3: Rab6a (protein, UniProt P35279 2-208, looked up)
Ras-related protein Rab-6A: SAGGDFGNPLRKFKLVFLGEQSVGKTSLITRFMYDSFDNTYQATIGIDFLSKTMYLEDRTVRLQLWDTAGQERFRSLIPSYIRDSTVAVVVYDITNVNSFQQTTKWIDDVRTERGSDVIIMLVGNKTDLADKRQVSIEEGERKAKELNVMFIETSAKAGYNVKQLFRRVAAALPGMESTQDRSREDMIDIKLEKPQEQPVNEGGCSC
B4: Pld3 (protein, UniProt O35405 1-488, looked up)
5'-3' exonuclease PLD3: MKPKLMYQELKVPVEEPAGELPLNEIEAWKAAEKKARWVLLVLILAVVGFGALMTQLFLWEYGDLHLFGPNQRPAPCYDPCEAVLVESIPEGLEFPNATTSNPSTSQAWLGLLAGAHSSLDIASFYWTLTNNDTHTQEPSAQQGEEVLQQLQALAPRGVKVRIAVSKPNGPLADLQSLLQSGAQVRMVDMQKLTHGVLHTKFWVVDQTHFYLGSANMDWRSLTQVKELGVVMYNCSCLARDLTKIFEAYWFLGQAGSSIPSTWPRSFDTRYNQETPMEICLNGTPALAYLASAPPPLCPSGRTPDLKALLNVVDSARSFIYIAVMNYLPTMEFSHPRRFWPAIDDGLRRAAYERGVKVRLLISCWGHSDPSMRSFLLSLAALHDNHTHSDIQVKLFVVPTDESQARIPYARVNHNKYMVTERASYIGTSNWSGSYFTETAGTSLLVTQNGHGGLRSQLEAVFLRDWESPYSHDLDTSANSVGNACRLL
B5: Ube2n (protein, UniProt P61089 1-152, looked up)
Ubiquitin-conjugating enzyme …: MAGLPRRIIKETQRLLAEPVPGIKAEPDESNARYFHVVIAGPQDSPFEGGTFKLELFLPEEYPMAAPKVRFMTKIYHPNVDKLGRICLDILKDKWSPALQIRTVLLSIQALLSAPNPDDPLANDVAEQWKTNEAQAIETARAWTRLYAMNNI
B6: Vapa (protein, UniProt Q9WV55 2-249, looked up)
Vesicle-associated membrane …: ASASGAMAKHEQILVLDPPSDLKFKGPFTDVVTTNLKLQNPSDRKVCFKVKTTAPRRYCVRPNSGIIDPGSIVTVSVMLQPFDYDPNEKSKHKFMVQTIFAPPNISDMEAVWKEAKPDELMDSKLRCVFEMPNENDKLNDMEPSKAVPLNASKQDGPLPKPHSVSLNDTETRKLMEECKRLQGEMMKLSEENRHLRDEGLRLRKVAHSDKPGSTSAVSFRDNVTSPLPSLLVVIAAIFIGFFLGKFIL
B7: Mdk (protein, UniProt P12025 23-140, looked up)
Midkine: KKKEKVKKGSECSEWTWGPCTPSSKDCGMGFREGTCGAQTQRVHCKVPCNWKKEFGADCKYKFESWGACDGSTGTKARQGTLKKARYNAQCQETIRVTKPCTSKTKSKTKAKKGKGKD
B8: Gsto1 (protein, UniProt O09131 2-240, looked up)
Glutathione S-transferase …: SGESSRSLGKGSAPPGPVPEGQIRVYSMRFCPFAQRTLMVLKAKGIRHEVININLKNKPEWFFEKNPLGLVPVLENSQGHLVTESVITCEYLDEAYPEKKLFPDDPYKKARQKMTLESFSKVPPLIASFVRSKRKEDSPNLREALENEFKKLEEGMDNYKSFLGGDSPSMVDYLTWPWFQRLEALELKECLAHTPKLKLWMAAMQQDPVASSHKIDAKTYREYLNLYLQDSPEACDYGL
B9: Cnn3 (protein, UniProt Q9DAW9 1-330, looked up)
Calponin-3: MTHFNKGPSYGLSAEVKNKIASKYDQQAEEDLRNWIEEVTGLGIGTNFQLGLKDGIILCELINKLQPGSVKKVNESSLNWPQLENIGNFIKAIQAYGMKPHDIFEANDLFENGNMTQVQTTLVALAGLAKTKGFHTTIDIGVKYAEKQTRRFDEGKLKAGQSVIGLQMGTNKCASQAGMTAYGTRRHLYDPKMQTDKPFDQTTISLQMGTNKGASQAGMLAPGTRRDIYDQKLTLQPVDNSTISLQMGTNKVASQKGMSVYGLGRQVYDPKYCAAPTEPVIHNGSQGTGTNGSEISDSDYQAEYPDEYHGEYPDDYPREYQYGDDQGIDY
B10: Fus (protein, UniProt P56959 1-518, looked up)
RNA-binding protein FUS: MASNDYTQQATQSYGAYPTQPGQGYSQQSSQPYGQQSYSGYGQSADTSGYGQSSYGSSYGQTQNTGYGTQSAPQGYGSTGGYGSSQSSQSSYGQQSSYPGYGQQPAPSSTSGSYGGSSQSSSYGQPQSGGYGQQSGYGGQQQSYGQQQSSYNPPQGYGQQNQYNSSSGGGGGGGGGNYGQDQSSMSGGGGGGGYGNQDQSGGGGGGYGGGQQDRGGRGRGGGGGYNRSSGGYEPRGRGGGRGGRGGMGGSDRGGFNKFGGPRDQGSRHDSEQDNSDNNTIFVQGLGENVTIESVADYFKQIGIIKTNKKTGQPMINLYTDRETGKLKGEATVSFDDPPSAKAAIDWFDGKEFSGNPIKVSFATRRADFNRGGGNGRGGRGRGGPMGRGGYGGGGSGGGGRGGFPSGGGGGGGQQRAGDWKCPNPTCENMNFSWRNECNQCKAPKPDGPGGGPGGSHMGGNYGDDRRGRGGYDRGGYRGRGGDRGGFRGGRGGGDRGGFGPGKMDSRGEHRQDRRERPY
B11: Hnrnph1 (protein, UniProt O35737 1-449, looked up)
Heterogeneous nuclear …: MMLGAEGGEGFVVKVRGLPWSCSADEVQRFFSDCKIQNGAQGIRFIYTREGRPSGEAFVELESEDEVKLALKKDRETMGHRYVEVFKSNNVEMDWVLKHTGPNSPDTANDGFVRLRGLPFGCSKEEIVQFFSGLEIVPNGITLPVDFQGRSTGEAFVQFASQEIAEKALKKHKERIGHRYIEIFKSSRAEVRTHYDPPRKLMAMQRPGPYDRPGAGRGYNSIGRGAGFERMRRGAYGGGYGGYDDYNGYNDGYGFGSDRFGRDLNYCFSGMSDHRYGDGGSTFQSTTGHCVHMRGLPYRATENDIYNFFSPLNPVRVHIEIGPDGRVTGEADVEFATHEDAVAAMSKDKANMQHRYVELFLNSTAGASGGAYEHRYVELFLNSTAGASGGAYGSQMMGGMGLSNQSSYGGPASQQLSGGYGGGYGGQSSMSGYDQVLQENSSDFQSNIA
B12: Uso1 (protein, UniProt Q9Z1Z0 1-959, looked up)
General vesicular transport …: MNFLRGVMGGQSAGPQHTEAETIQKLCDRVASSTLLDDRRNAVRALKSLSKKYRLEVGIQAMEHLIHVLQTDRSDSEIIAYALDTLYNIISNDEEEELEENSTRQSEDLGSQFTEIFIKQPENVTLLLSLLEEFDFHVRWPGVRLLTSLLKQLGPPVQQIILVSPMGVSRLMDLLADSREIIRNDGVLLLQALTRSNGAIQKIVAFENAFERLLDIITEEGNSDGGIVVEDCLILLQNLLKTNNSNQNFFKEGSYIQRMKPWFEVGEENSGWSAQKVTNLHLMLQLVRVLVSPTNPPGATSSCQKAMFQCGLLQQLCTILMATGIPADILTETINTVSEVIRGCQVNQDYFASVNAPSNPPRPAIVVLLMSMVNERQPFVLRCAVLYCFQCFLYKNEKGQGEIVATLLPSTIDATGNSVSAGQLLCGGLFSTDSLSNWCAAVALAHALQGNATQKEQLLRVQLATSIGNPPVSLLQQCTNILSQGSKIQTRVGLLMLLCTWLSNCPIAVTHFLHNSANVPFLTGQIAENLGEEEQLVQGLCALLLGISIYFNDNSLENYTKEKLKQLIEKRIGKENFIEKLGFISKHELYSRASQKPQPNFPSPEYMIFDHEFTKLVKELEGVITKAIYKSSEEDKKEEEVKKTLEQHDNIVTHYKNMIREQDLQLEELKQQVSTLKCQNEQLQTAVTQQASQIQQHKDQYNLLKVQLGKDNHHQGSHGDGAQVNGIQPEEISRLREEIEELKSQQALLQGQLAEKDSLIENLKSSQASGMSEQASATCPPRDPEQVAELKQELTALKSQLCSQSLEITRLQTENCELLQRAETLAKSVPVEGESEHVSAAKTTDVEGRLSALLQETKELKNEIKALSEERTAIQKQLDSSNSTIAILQTEKDKLDLEVTDSKKEQDDLLVLLADQDQKILSLKSKLKDLGHPVEEEDESGDQEDDDDEIDDGDKDQDI

Assays:
WT MEF EVs = assay: Quantitative LC-MS/MS proteomics of EVs from ISRIB-treated WT MEF cultures; assay type: cell-based, mouse; settings: EV protein abundance, ISRIB-treated WT vs WT
DYT-TOR1A MEF EVs = assay: Quantitative LC-MS/MS proteomics of EVs from drug-treated DYT-TOR1A MEF cultures (ritonavir, salubrinal); assay type: cell-based, mouse; set-up: key to RTV Corrective Direction / RTV Corrective Direction, Grwd1 / RTV Corrective Direction, Srrm2 / RTV Corrective Direction, Rbm17 / RTV Corrective Direction, Dcaf8 / RTV Corrective Direction, Edil3 / RTV Corrective Direction, Timp3 / RTV Corrective Direction, Heatr3 / RTV Corrective Direction, Brd4 / RTV Corrective Direction, P3h4 / RTV Corrective Direction, Pacsin3 / RTV Corrective Direction, Naa50 / RTV Corrective Direction, Lpar6 / RTV Corrective Direction, Ndrg1 / RTV Corrective Direction, Kntc1 / RTV Corrective Direction, Cdk11b / RTV Corrective Direction, Sumo1 / RTV Corrective Direction, Lsm4 / RTV Corrective Direction, Hmga2 / RTV Corrective Direction, Cstf1 / RTV Corrective Direction, Tes / RTV Corrective Direction, Sbno1 / RTV Corrective Direction, Unc119b / RTV Corrective Direction, Cfdp1 / RTV Corrective Direction, Sec61b: YES = protein abundance effect opposite to DYT/WT; settings: EV protein abundance; for RTV Corrective Direction: DYT + RTV (ritonavir) vs DYT, direction compared with DYT/WT; for DYT + RTV/DYT Cohen's d: ritonavir (RTV)-treated DYT vs DYT

| Molecule | WT + ISRIB/WT Cohen's d (WT MEF EVs) | RTV Corrective Direction (DYT-TOR1A MEF EVs) | DYT + RTV/DYT Cohen's d (DYT-TOR1A MEF EVs) |
| --- | --- | --- | --- |
| B1 | 1.73 | YES | 10.89 |
| B2 | −0.18 | YES | −3.24 |
| B3 | 0.44 | YES | 3.14 |
| B4 | 1.18 | YES | 0.61 |
| B5 | 0.41 | YES | 6.02 |
| B6 | 3.18 | YES | 1.91 |
| B7 | 1.33 | YES | 3.64 |
| B8 | 0.04 | YES | 3.45 |
| B9 | 2.76 | YES | 4.78 |
| B10 | 0.85 | YES | 11.94 |
| B11 | 2.47 | YES | 4.23 |
| B12 | 2.44 | YES | 9.12 |
